Experimental data reported in patent US12012599B2, “Compositions and methods for modulating left-right differentiation factor (LEFTY) and bone morphogenic factor (BMP)” (CZ Biohub SF LLC, priority 2018, dated 2024).

What was measured:
BMP7-BMPR2 interaction = target: T1, BMP7-BMPR2 interaction (Homo sapiens, UniProt Q13873); assay: Proximity Ligation Assay of BMP7-BMPR2 interaction in MDA-MB-231; assay type: cell-based; conditions: 50 ng/mL BMP7 30 minutes, exogenous LEFTY 200 ng/mL
T1 construct: endogenous in cells; host or cells: MDA-MB-231
T1 sequence (Q13873 27-1038): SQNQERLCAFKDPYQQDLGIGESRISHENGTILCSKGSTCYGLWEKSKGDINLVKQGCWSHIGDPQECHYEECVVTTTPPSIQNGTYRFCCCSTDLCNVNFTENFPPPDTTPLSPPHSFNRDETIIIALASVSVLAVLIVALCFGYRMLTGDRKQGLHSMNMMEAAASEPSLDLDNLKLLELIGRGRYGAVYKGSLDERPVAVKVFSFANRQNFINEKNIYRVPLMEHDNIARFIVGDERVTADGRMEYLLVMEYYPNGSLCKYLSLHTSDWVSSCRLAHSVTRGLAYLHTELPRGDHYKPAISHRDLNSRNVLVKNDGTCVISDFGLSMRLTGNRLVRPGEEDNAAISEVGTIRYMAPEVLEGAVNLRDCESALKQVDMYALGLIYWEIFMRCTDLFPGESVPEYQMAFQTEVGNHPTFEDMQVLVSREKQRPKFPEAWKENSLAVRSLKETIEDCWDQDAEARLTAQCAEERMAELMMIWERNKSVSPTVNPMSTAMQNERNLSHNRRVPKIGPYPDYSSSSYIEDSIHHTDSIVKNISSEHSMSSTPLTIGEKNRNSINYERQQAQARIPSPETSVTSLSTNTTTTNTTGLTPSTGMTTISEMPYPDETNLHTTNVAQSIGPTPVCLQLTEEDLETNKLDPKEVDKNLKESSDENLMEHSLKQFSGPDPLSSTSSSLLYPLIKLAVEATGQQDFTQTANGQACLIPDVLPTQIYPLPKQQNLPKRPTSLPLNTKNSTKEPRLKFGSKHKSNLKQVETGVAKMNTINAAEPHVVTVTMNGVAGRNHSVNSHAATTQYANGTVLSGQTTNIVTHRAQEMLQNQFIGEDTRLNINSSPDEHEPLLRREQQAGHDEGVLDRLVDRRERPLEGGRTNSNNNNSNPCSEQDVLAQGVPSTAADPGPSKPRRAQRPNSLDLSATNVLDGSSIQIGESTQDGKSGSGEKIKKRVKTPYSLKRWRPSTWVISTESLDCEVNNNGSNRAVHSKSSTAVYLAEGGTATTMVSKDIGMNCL
Protocol: FIGS. 20 and 21 are data from an experiment in which the breast cancer cell line MDA-MB-231 was plated and serum starved for 24 hours. 50 ng/mL BMP7 was added for 30 minutes to activate pSMAD5, either in the absence or presence of exogenous LEFTY (200 ng/mL). LEFTY-BMPR2 interaction, BMP7-BMPR2 interaction (as visualized by Proximity Ligation Assay, red), pSMAD5 status (As visualized by Immunofluorescence, green) were monitored and captured.
For the PLA assay (DUOLink, OLink Biosciences, Sigma-Aldrich #DUO92102), cells were seeded and treated on 13 mm glass coverslips previously coated with Poly-L-Lysine (Millipore). The cells were fixed with ice cold 100% Methanol for 5 minutes at −20° C. and then rehydrated thrice in PBS for 5 min each. Coverslips were blocked for 30 min with PBS+3% BSA and then incubated with appropriate dilution of primary antibodies in PBS+1% BSA for 1 h in a moist environment at room temperature. Rabbit anti-LEFTY1 and Thermo mouse anti-BMPR2 were used to characterize the interaction between LEFTY and BMPR2 (Table S2). […]
Breast cancer cell line MDA-MB-231 was plated and serum starved for 24 hours. […] LEFTY-BMPR2 interaction, BMP7-BMPR2 interaction (as visualized by Proximity Ligation Assay, red), pSMAD5 status (As visualized by Immunofluorescence, green) were monitored and captured.

BMPR2 = assay: LEFTY1 and BMPR2 immunoprecipitation assays; assay type: binding; conditions: both directions
From the text: FIGS. 5A-5H. LEFTY1 inhibits pSMAD2 and pSMAD5 in the basal mammary epithelial cells. […] KRT8 was used to stain the luminal cells and SMA for basal cells (Magnification 400×). […] Gapdh was used as a housekeeping gene. […] Ten different fields were counted per condition (n=3). Data are represented as median±S.D. Statistical analysis, (a and b) Student's T-test, * p<0.05; (h) One-way ANOVA with Dunnet's adjustment, ****p<0.0001.
FIGS. 7A-7E. LEFTY1 interaction with BMPR2 inhibits the phosphorylation of SMAD5. […] Ten different fields were counted per condition (n=3). […] 48 hours after transfection, cells were washed and incubated with different concentrations of BMP7 (from 0-800 ng/ml) for 16 hours prior to collection of the cells. […] 48 hours after transfection, cells were washed and incubated with different concentrations of LEFTY1 (from 0-200 ng/ml) for 16 hours prior to collection of the cells. […] 48 hours after transfection, cells were washed and incubated with different concentrations of BMP7 and LEFTY1 at the indicated concentrations for 16 hours prior to collection of the cells. Data are represented as median±S.D. Statistical analysis, one-way ANOVA with Dunnet's adjustment, *p<0.05; **p<0.01; ****p<0.0001.
Since BMPR2 is upstream of pSMAD1/5/8, we reasoned that BMPR2 could serve as a common BMP Type II receptor that mediates the BMP7/LEFTY1 axis. […]

B1: LEFTY1: left-right determination factor 1, secreted TGF-β superfamily protein; generic LEFTY may mean LEFTY1 or LEFTY2 (protein, UniProt O75610 77-366, looked up)
Left-right determination …: RFSQSFREVAGRFLALEASTHLLVFGMEQRLPPNSELVQAVLRLFQEPVPKAALHRHGRLSPRSARARVTVEWLRVRDDGSNRTSLIDSRLVSVHESGWKAFDVTEAVNFWQQLSRPRQPLLLQVSVQREHLGPLASGAHKLVRFASQGAPAGLGEPQLELHTLDLGDYGAQGDCDPEAPMTEGTRCCRQEMYIDLQGMKWAENWVLEPPGFLAYECVGTCRQPPEALAFKWPFLGPRQCIASETDSLPMIVSIKEGGRTRPQVVSLPNMRVQKCSCASDGALVPRRLQP
BMP7-BMPR2 interaction
  BMP7-BMPR2 interaction: reduces BMP7-BMPR2 interactions
BMPR2
  binding of LEFTY1 to BMPR2 (pull-down): able to detect the binding
